Article PMC3115949

Substrate: O=P(O)(O)O
Experiment: cells, lysate or membranes
Conditions: labelled compound, whole yeast cells, 5 min, 30 °C, glucose-energized, Pi 50-2000 µM, proton symport, pH of Km assay not stated

| Protein | Km [mM] |
| --- | --- |
| GmPT2 (Glycine max) (protein) MAGGQLGVLNALDVAKTQWYHFTAIVIAGMGFFTDAYDLFCISLVTKLLGRLYYTDITNPKPGVLPPNVQAAVTGVALCGTLAGQLFFGWLGDKLGRKRVYGLTLMLMVVCSVASGLSFGDTPKGVMATLCFFRFWLGFGIGGDYPLSATIMSEYANKKTRGAFIAAVFAMQGFGILAGGIVALIVSSAYDHKYDLPSYKDNPAGSKVDSLDYVWRIILMFGAVPAGLTYYWRMKMPETARYTALVAKNAKQAASDMSKVLQVEVEAEEDKLQHMVESEHQKYGLFSKEFAKRHGLHLVGTTVTWFLLDIAFYSQNLFQKDIFSAIGWIPPAQDMNAIHEVYRIARAQTLIALCSTVPGYWFTVAFIDIMGRFAIQLMGFFFMTVFMFALAIPYNHWKNHNNIGFVVMYSFTFFFSNFGPNATTFVVPAEIFPARLRSTCHGISAAAGKAGAIVGAFGFLYAAQSTNPDKVDHGYPTGIGVKNSLIVLGVINFFGMVFTLLVPESKGKSLEELSGENEDDGAEAIEMAGSARTVPV | 6.63 |
| GmPT1 (Glycine max) (protein) MAGGQLGVLNALDVAKTQWYHFTAIVIAGMGFFTDAYDLFCISLVTKLLGRLYYTDIRNPKPGVLPPNVQAAVTGVALCGTLAGQLFFGWLGDKLGRKRVYGLTLMLMVLCSIASGLSFGDTPKGVMATLCFFRFWLDFGIGGDYPLSATIMSEYANKKTRGSFIAAVFAMQGFGIMAGGIVALIVSSAYDHKYDLPSYKDNPAGSKVDSLDYVWRIILMFGAVPAALTYYWRMKMPETARYTALVAKNAKQAASDMSKVLQVEVEAEEDKLQHMVESENQKYGLFSKEFAKRHGLHLVGTTVTWFLLDIAFYSQNLFQKDIFTAIGWIPPAQDMNAIHEVYRIARAQTLIALCSTVPGYWFTVAFIDIIGRFAIQLMGFFFMTVFMFALAIPYNHWKNHNNIGFVVMYSFTFFFSNFGPNATTFVVPAEIFPARLRSTCHGISAAAGKAGAIVGAFGFLYAAQSTNPNKVDHGYPTGIGVKNSLIVLGVINFFGMVFTLLVPESKGKSLEELSGENEDDGAEAIEMAGSARTVPV | 6.65 |
